# Reference: article PMC2677881
# T1: NtbZIP (Nicotiana tabacum, UniProt Q4PKH1 1-400)
# T1 sequence: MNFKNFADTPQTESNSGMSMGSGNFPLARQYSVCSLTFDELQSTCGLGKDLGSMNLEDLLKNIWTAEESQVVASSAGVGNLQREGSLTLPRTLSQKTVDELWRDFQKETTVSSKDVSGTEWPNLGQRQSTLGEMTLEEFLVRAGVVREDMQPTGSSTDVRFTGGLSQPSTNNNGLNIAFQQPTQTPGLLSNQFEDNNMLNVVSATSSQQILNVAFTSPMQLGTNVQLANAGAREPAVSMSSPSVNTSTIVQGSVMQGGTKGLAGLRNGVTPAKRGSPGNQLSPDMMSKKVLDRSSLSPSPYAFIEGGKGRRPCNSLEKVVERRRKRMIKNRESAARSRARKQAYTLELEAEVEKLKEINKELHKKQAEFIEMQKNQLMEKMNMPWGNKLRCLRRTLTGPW
# B1: 4x G-box of PNZIP promoter (dsDNA)
# DNA 1: GCCACGTGTCGCCACGTGTCGCCACGTGTCGCCACGTGTC
# DNA 2: GACACGTGGCGACACGTGGCGACACGTGGCGACACGTGGC
# Molecular target: T1, NtbZIP
# Assay: EMSA
binder,measurement,value
B1,binding result,binds
